Assay [1] relates to β-lactamase transport in E. coli MM52 (secAts). Description: Ampicillin resistance, colony formation in temperature-sensitive secA mutant strain MM52. Format: cell-based, Escherichia coli. As to conditions: 30° C. permissive temperature. An excerpt: The effects of Bce44B on β-lactamase transport were further tested in a temperature-sensitive secA (secAts) mutant bacterial strain (MM52, a gift from Dr. Jon Beckwith, Harvard Medical School, Boston Mass.) to provide further evidence that the expressed Bce44B component affected protein translocation in bacteria and that the protein transport enhancement was not due solely to the upregulation of the existing bacterial transport machinery such as SecA. See Example 17. The defective protein translocation phenotype in MM52 appears primarily when cells are subjected to temperatures above 30° C. Protein translocation slows down and comes to a halt upon shifting to temperatures above 30° C. […] Effects on protein transport can then be monitored in this strain by tracking the β-lactamase profiles at permissive and non-permissive temperatures.
The same Bce44B gene construct and control Oee1-Dhfr plasmid were introduced into MM52 and its wild type counterpart strain MC4100 (containing the wild-type SecA) via electroporation. The role of Bce44B in protein translocation was assessed as before using three different criteria: 1) the level of antibiotic resistance conferred; 2) the profile of transported versus precursor β-lactamase at permissive and non-permissive temperatures; and 3) the level of sensitivity of protein transport to sodium azide. […]

For assay [2], the system named is alkaline phosphatase translocation in E. coli JM109 (DE3). Description: Induction and transport of alkaline phosphatase under phosphate starvation (immunoblot). Format: cell-based, Escherichia coli. As to conditions: low phosphate (50 μM), cells harvested at the two growth peaks. An excerpt: The directionality of the distribution of Bce44B in the cytoplasmic membrane and the capability of the bacterium to recognize and integrate Bce44B into the membrane raised the possibility that Bce44B may be functional as a foreign component of the bacterial protein transport apparatus. Functionality of Bce44B was therefore assessed by monitoring two transported bacterial proteins, alkaline phosphatase and , β-lactamase. Alkaline phosphatase is a single copy gene and is transported into the periplasm upon induction by phosphate starvation (50 μM) (Torriani et al. (1960) Biochim. Biophys. Acta. 38:460). The growth characteristics of Bce44B-containing bacteria were compared to those of a strain expressing Oee1-Dhfr, a chimeric chloroplast protein precursor. The expression vector used in the Oee1-Dhfr transformed strain was the same as the one in the Bce44B transformed cells. Growth was monitored in M9 minimal media with growth-permissive phosphate levels or with low phosphate levels (50 μM).
The induction and analysis of alkaline phosphatase was performed as described by Torniani et al. (1960) Biochim. Biophys. Acta. 38:460. […]
Background: Immunoblotting shows a protein as a band on a membrane.

B1: Bce44B: plastid transport protein, Brassica napus 44 kDa chloroplast envelope protein, member of Com44/Cim44, encoded by SEQ ID NO:1 (protein)
chain: MQTAMKTMMNQMNTQNSQFNNPGFPTGAGAGAGSPFPFPFPPQTSPTTSPFQPQSQSSGATVDLTATKVDRPPVSKPQPTPIPPTKSIEVYKPSVVVEENKAMKEEKNYAFEDVSPEETTKESPFSNYEEVSETSAPKETRLFDDVLQNGAAPANGATASDVFQSLGAGKGWAGGSVEVLEKMIEYPTFQKMLYPHLPEEMRNPESFKWVRKNPQYRQQLQDMLNNMSESGEWDKRMTETLKNFDPNSPEVKQGFDQLGLTPEEVISKIMENPDVSMAFQNPRVEAALMDCSENPMNIMKYQNDKEVMDVFNKISQLFPGLTG
As for B1, the “ampicillin concentration up to which expressing cells form colonies” value in assay [1] was “up to 3 mg/ml”. Moreover, the “level of processed alkaline phosphatase relative to Oee1-Dhfr-expressing cells” value in assay [2] is on record as “higher level”.

The record behind these values is US6353153B1, “Enhanced transport with a plastid membrane transport protein” (priority 1996, dated 2002).
